This passage reports Kd results from publication PMC11237084 (2024).

This test deals with Aβ(1-40) peptide, monomeric (UniProt P05067 672-711). The test is described as follows: SPR. Background: In SPR one partner is held on a chip, and binding of the other changes the refractive index at the surface.

As usually defined, the Kd is the free concentration of one partner at which half of the binding sites on the other are occupied at equilibrium, for simple one-to-one binding. Low values mean a tighter complex, high ones a looser complex.

B1: anticalin H1GA (Aβ-anticalin) (designed binder)
chain: QDSTSDLIPAPPLSKVPLQQNFQDNQFHGKWYVVGAAGNVLLREDKDPLKMYATIYELKEDKSYNVTSVGFDDKKCLYKIRTFVPGSQPGEFTLGRIKSEPGGTSWLVRVVSTNYNQHAMVFFKEVAQNRETFNITLYGRTKELTSELKENFIRFSKSLGLPENHIVFPVPIDQCIDG
For the molecule B1, binding was characterised by a dissociation constant (Kd) of 0.54 nM.
